Test results: paper PMC3903306 (Biochemistry, 2012)

Molecular target: the molecule itself
Assay: cross-linking

B1: IpgC (natural protein)
chain: MSLNITENESISTAVIDAINSGATLKDINAIPDDMMDDIYSYAYDFYNKGRIEEAEVFFRFLCIYDFYNVDYIMGLAAIYQIKEQFQQAADLYAVAFALGKNDYTPVFHTGQCQLRLKAPLKAKECFELVIQHSNDEKLKIKAQSYLDAIQDIKE
stoichiometry N: 2
